In the supplement of paper PMC10724198:
± gives the standard deviation of the averaged measurements.

Test system: Saccharomyces cerevisiae
Assay: protein stability index of tFT-peptide fusion (C-terminal peptide) (PSI (0-1 scale)); higher = more stable (slower turnover)
Details: genetic background: wild type; temperature: 30 C
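Note: PSI is a weighted mean of sequencing reads over stability bins, variants kept only with over 10 reads, mCherry proximal and sfGFP distal, peptide attached via GGGS linker.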

| Sequence | protein stability index |
| --- | --- |
| LVHPPPPLLPPA | 0.6 ± 0.018 |
| RLSSCSAPFPLL | 0.7194 ± 0.0068 |
| SPPPLPPVRPPV | 0.722 ± 0.033 |
| GMYRHEGQSWDL | 0.7316 ± 0.0065 |
| GVVVGCGYGLVG | 0.665 ± 0.04 |
| PPPALPPPPRPP | 0.604 ± 0.065 |
| GRTENKKPSIKL | 0.711 ± 0.058 |
| PPPPPPCSPATS | 0.747 ± 0.14 |
| SRKIAPNGTATL | 0.706 ± 0.012 |
| INTVGRCCGLVE | 0.681 ± 0.043 |
| QKGSGITPSPAR | 0.757 ± 0.12 |
| KREQKPHPKLKL | 0.5682 ± 0.0021 |
| VGFGEGCLSFPF | 0.668 ± 0.072 |
| FGSCVVVRRVGF | 0.619 ± 0.056 |
| QADHGSSPHSIG | 0.717 ± 0.051 |
| EAIQDCERGPCW | 0.698 ± 0.0081 |
| FLSEFFMPSPFP | 0.745 ± 0.097 |
| LWPSLRRFHSTS | 0.714 ± 0.2 |
| VGSPPVWAAVWG | 0.614 ± 0.12 |
| SSSPSPRPPRPP | 0.679 ± 0.0097 |
| KKKRRFTQEMDK | 0.684 ± 0.17 |
| PFSAPRRLPRTV | 0.697 ± 0.0089 |
| ERVGLISSRRGC | 0.696 ± 0.014 |

| Sequence | protein stability index |
| --- | --- |
| RRVMGRLKNQIK | 0.6672 ± 0.0065 |
| GIMNDMPSLTAT | 0.6757 ± 0.0038 |
| WGEGCGSSEEGE | 0.695 ± 0.087 |
| FPPPPTHPASSP | 0.691 ± 0.027 |
| PPSGSFLFSVHP | 0.734 ± 0.016 |
| LSNFLFYGLCPG | 0.651 ± 0.081 |
| CSVPPPLPPTTF | 0.683 ± 0.073 |
| LPVPTLGRPLSL | 0.69 ± 0.034 |
| PPVGPPFPPLPH | 0.784 ± 0.13 |
| SLVAALHRPTFV | 0.679 ± 0.034 |
| GGGGVLGVVRVG | 0.62 ± 0.033 |
| VGSVVRGLVGPY | 0.717 ± 0.19 |
| STSPRSAFSPLT | 0.619 ± 0.011 |
| GGVSRLVGRLGG | 0.7055 ± 0.0017 |
| KSKQKNKTQVKN | 0.66 ± 0.023 |
| LSFTSVLGQIPV | 0.705 ± 0.039 |
| GRGLAEGRRITR | 0.638 ± 0.062 |
| HPLLPRPVPLTD | 0.665 ± 0.059 |
| TYATPSLVFPLL | 0.695 ± 0.011 |
| GCIPFELLECGF | 0.663 ± 0.071 |
| VRTSGRCCPTGP | 0.641 ± 0.036 |
| LPHFHPPLDPPA | 0.692 ± 0.0079 |
| LSSSWDLTHFDC | 0.714 ± 0.033 |

| Sequence | protein stability index |
| --- | --- |
| RSIYEFVPIRYV | 0.594 ± 0.028 |
| PLPSSSTRSTSP | 0.714 ± 0.013 |
| CRGSGGRVVLVG | 0.674 ± 0.041 |
| NLRRPLYYNGSV | 0.757 ± 0.076 |
| PPPGSPLRPSRL | 0.748 ± 0.12 |
| RVVPSVSVWLPP | 0.663 ± 0.052 |
| LSFFLFLLSPFY | 0.582 ± 0.028 |
| GWFTMLTGAFAE | 0.7249 ± 0.003 |
| GGVVSVYCEVSR | 0.625 ± 0.016 |
| APTVPQILVRHA | 0.6736 ± 0.0047 |
| RPPPLLPARLSL | 0.727 ± 0.028 |
| PLLPLAASPPPP | 0.683 ± 0.051 |
| NVIGSGLFVGWD | 0.795 ± 0.087 |
| EDFKTKQKKKKE | 0.709 ± 0.077 |
| PPPPPPRPPSAH | 0.708 ± 0.087 |
| EWVKFCFPIVQS | 0.651 ± 0.048 |
| KTKKRKTKKKTK | 0.723 ± 0.036 |
| RETSGEVESDVT | 0.678 ± 0.014 |
| FRDVRFSSRVPF | 0.786 ± 0.07 |
| GAGCRDSSRRRT | 0.687 ± 0.037 |
| LPAPPPHPLSPV | 0.7161 ± 0.0063 |
| EGGGGGPGDARR | 0.663 ± 0.025 |
